Article PMC4731814
pKd: −log10 of the molar value. Each block holds one substance with its values, some of them ahead of it.

What was measured:
[1] = target: tricellulin first extracellular loop fragment K217A (human) (UniProt Q8N4S9); assay: SPR; BIAcore X; tricellulin proteins amine-coupled on a CM5 chip; human PLG as analyte at 62.5-1000 nM; HBS-P buffer pH 7.4, 0.15 M NaCl, 37 °C, 30 μl/min; 1:1 Langmuir binding model
[2] = target: tricellulin first extracellular loop fragment K217A K252A (human) (UniProt Q8N4S9); assay: as above
[3] = target: tricellulin first extracellular loop fragment K252A (human) (UniProt Q8N4S9); assay: as above
[4] = target: tricellulin first extracellular loop fragment, wild type (human) (UniProt Q8N4S9); assay: as above
[5] = target: tricellulin second extracellular loop fragment (human) (UniProt Q8N4S9); assay: as above
human plasminogen = assay: ELISA; conditions: bacteria OD600 = 0.6 bound to microtiter plates; 1 μM human PLG; parent: est. 0.29; read off a plot

pKd [1]: 6.74
koff [1]: 0.0298 s⁻¹
kon [1]: 165000 M⁻¹ s⁻¹
pKd [2]: 5.99
koff [2]: 0.0742 s⁻¹
kon [2]: 72400 M⁻¹ s⁻¹
pKd [3]: 5.50
koff [3]: 0.0184 s⁻¹
kon [3]: 5890 M⁻¹ s⁻¹
pKd [4]: 7.29
koff [4]: 7.13 s⁻¹
kon [4]: 1.39e+08 M⁻¹ s⁻¹
pKd [5]: 5.90
koff [5]: 0.214 s⁻¹
kon [5]: 169000 M⁻¹ s⁻¹
Substance: human plasminogen (natural protein)

Substance: streptococcal surface enolase on GAS strain NIH35 (wild type) (from UniProt P69949) K252L; K255L; K434L; K435L
response (human plasminogen): 0.17 A450

Substance: streptococcal surface enolase on GAS strain NIH35 (wild type) (from UniProt P69949) K252L; K255L
response (human plasminogen): 0.23 A450

Substance: streptococcal surface enolase on GAS strain NIH35 (wild type) (from UniProt P69949) K434L; K435L
response (human plasminogen): 0.3 A450
